These are literature values, as cited in paper PMC10170156.

The target of the series is EGFR (Homo sapiens) (UniProt P00533).

As a reminder, the Kd is a measure of binding affinity in units of concentration. Turning to EGF (from UniProt P01133), the equilibrium dissociation constant (Kd) is 4 nM.
